Measurements published in patent US7354734B2, “Fungal proteins and nucleic acids encoding same” (priority 2003, dated 2008).
Entries after “also recorded” stand apart in the source; their conditions may differ.

Columns and labels:
[1] = system: gliadin 14mer PQPQLPYPQPQLPY (fragment 82-95 of α/β gliadin AIV); type: biochemical, wheat; conditions: 4 h, 37° C.
[2] = system: gliadin 33mer (fragment 57-89 of gliadin MM1); assay: Digestion of gliadin 33mer (RP-HPLC, ESI-MS); type: biochemical, wheat; conditions: 37° C.; for digestion of gliadin 33mer, mixed with ruDPPIV: enzyme plus ruDPPIV (DPPIV)
[3] = type: biochemical; conditions: for hydrolytic activity toward Ala-AMC in comparison to Leu-MCA used as a standard: substrate Ala-AMC 5 mM; for hydrolytic activity toward Ala-AMC in comparison to Leu-MCA used as a standard / hydrolytic activity toward Arg-AMC in comparison to Leu-MCA used as a standard / hydrolytic activity toward Asn-AMC in comparison to Leu-MCA used as a standard / hydrolytic activity toward Asp-AMC in comparison to Leu-MCA used as a standard / hydrolytic activity toward Cys-AMC in comparison to Leu-MCA used as a standard / hydrolytic activity toward Gln-AMC in comparison to Leu-MCA used as a standard / hydrolytic activity toward Glu-AMC in comparison to Leu-MCA used as a standard / hydrolytic activity toward Gly-AMC in comparison to Leu-MCA used as a standard / hydrolytic activity toward Gly-Pro-AMC in comparison to Leu-MCA used as a standard / hydrolytic activity toward His-AMC in comparison to Leu-MCA used as a standard / hydrolytic activity toward Hyp-AMC in comparison to Leu-MCA used as a standard / hydrolytic activity toward Ile-AMC in comparison to Leu-MCA used as a standard / hydrolytic activity toward Leu-AMC in comparison to Leu-MCA used as a standard / hydrolytic activity toward Lys-AMC in comparison to Leu-MCA used as a standard / hydrolytic activity toward Met-AMC in comparison to Leu-MCA used as a standard / hydrolytic activity toward Phe-AMC in comparison to Leu-MCA used as a standard / hydrolytic activity toward Pro-AMC in comparison to Leu-MCA used as a standard / hydrolytic activity toward Pyr-AMC in comparison to Leu-MCA used as a standard / hydrolytic activity toward Ser-AMC in comparison to Leu-MCA used as a standard / hydrolytic activity toward Thr-AMC in comparison to Leu-MCA used as a standard / hydrolytic activity toward Val-AMC in comparison to Leu-MCA used as a standard: 37° C., 60 min; for hydrolytic activity toward Arg-AMC in comparison to Leu-MCA used as a standard: substrate Arg-AMC 5 mM; for hydrolytic activity toward Asn-AMC in comparison to Leu-MCA used as a standard: substrate Asn-AMC 5 mM; for hydrolytic activity toward Asp-AMC in comparison to Leu-MCA used as a standard: substrate Asp-AMC 5 mM; for hydrolytic activity toward Cys-AMC in comparison to Leu-MCA used as a standard: substrate Cys-AMC 5 mM; for hydrolytic activity toward Gln-AMC in comparison to Leu-MCA used as a standard: substrate Gln-AMC 5 mM; for hydrolytic activity toward Glu-AMC in comparison to Leu-MCA used as a standard: substrate Glu-AMC 5 mM; for hydrolytic activity toward Gly-AMC in comparison to Leu-MCA used as a standard: substrate Gly-AMC 5 mM; for hydrolytic activity toward Gly-Pro-AMC in comparison to Leu-MCA used as a standard: substrate Gly-Pro-AMC 5 mM; for hydrolytic activity toward His-AMC in comparison to Leu-MCA used as a standard: substrate His-AMC 5 mM; for hydrolytic activity toward Hyp-AMC in comparison to Leu-MCA used as a standard: substrate Hyp-AMC 5 mM; for hydrolytic activity toward Ile-AMC in comparison to Leu-MCA used as a standard: substrate Ile-AMC 5 mM; for hydrolysis of Leu-AMC: substrate Leu-AMC; for hydrolytic activity toward Leu-AMC in comparison to Leu-MCA used as a standard: substrate Leu-AMC 5 mM; for hydrolytic activity toward Lys-AMC in comparison to Leu-MCA used as a standard: substrate Lys-AMC 5 mM; for hydrolytic activity toward Met-AMC in comparison to Leu-MCA used as a standard: substrate Met-AMC 5 mM; for hydrolytic activity toward Phe-AMC in comparison to Leu-MCA used as a standard: substrate Phe-AMC 5 mM; for hydrolytic activity toward Pro-AMC in comparison to Leu-MCA used as a standard: substrate Pro-AMC 5 mM; for hydrolytic activity toward Pyr-AMC in comparison to Leu-MCA used as a standard: substrate Pyr-AMC 5 mM; for hydrolytic activity toward Ser-AMC in comparison to Leu-MCA used as a standard: substrate Ser-AMC 5 mM; for hydrolytic activity toward Thr-AMC in comparison to Leu-MCA used as a standard: substrate Thr-AMC 5 mM; for hydrolytic activity toward Val-AMC in comparison to Leu-MCA used as a standard: substrate Val-AMC 5 mM
[4] = type: biochemical; conditions: substrate Lys(Abz)Pro-PropNA 5 mM, 37° C., 60 min

## ruDPPIV: T. rubrum dipeptidylpeptidase IV (SEQ ID NO: 35)
[1]
  digestion of gliadin 14mer, enzyme alone: not able to hydrolyse
[2]
  digestion of gliadin 33mer, enzyme alone: not a substrate

B1: fuLAP2: A. fumigatus leucine aminopeptidase, 498 amino acid residues (SEQ ID NO: 9) (protein, listed as Aspergillus fumigatus)
chain: MKLLYLTSFASLAVANGPGWDWKPRVHPKVLPQMIHLWDLLQGAQQLEDFAYAYPERNRVFGGRAHEDTVNYLYRELKKTGYYDVYKQPQVHQWTRADQALTVDGQSYDATTMTYSPSVNATAPLAVVNNLGCVEADYPADLTGKIALISRGECTFATKSVLSAKAGAAAALVYNNIEGSMAGTLGGATSELGAYAPIAGISLADGQALIQMIQAGTVTANLWIDSQVENRTTYNVIAQTKGGDPNNVVALGGHTDSVEAGPGINDDGSGIISNLVVAKALTRFSVKNAVRFCFWTAEEFGLLGSNYYVNSLNATEQAKIRLYLNFDMIASPNYALMIYDGDGSAFNLTGPAGSAQIERLFEDYYTSIRKPFVPTEFNGRSDYQAFILNGIPAGGLFTGAEAIKTEEQAQLFGGQAGVALDANYHAKGDNMTNLNREAFLINSRATAFAVATYANSLDSIPPRNMTTVVKRSQLEQAMKRTPHTHTGGTGCYKDRVEQ
[3]
  hydrolytic activity toward Ala-AMC in comparison to Leu-MCA used as a standard: 11.7%
  hydrolytic activity toward Arg-AMC in comparison to Leu-MCA used as a standard: 2.3%
  hydrolytic activity toward Asn-AMC in comparison to Leu-MCA used as a standard: 73.5%
  hydrolytic activity toward Asp-AMC in comparison to Leu-MCA used as a standard: 0.3%
  hydrolytic activity toward Cys-AMC in comparison to Leu-MCA used as a standard: 2.1%
  hydrolytic activity toward Gln-AMC in comparison to Leu-MCA used as a standard: 37.0%
  hydrolytic activity toward Glu-AMC in comparison to Leu-MCA used as a standard: 1.1%
  hydrolytic activity toward Gly-AMC in comparison to Leu-MCA used as a standard: 2.2%
  hydrolytic activity toward Gly-Pro-AMC in comparison to Leu-MCA used as a standard: 74.1%
  hydrolytic activity toward His-AMC in comparison to Leu-MCA used as a standard: 1.9%
  hydrolytic activity toward Hyp-AMC in comparison to Leu-MCA used as a standard: 13.3%
  hydrolytic activity toward Ile-AMC in comparison to Leu-MCA used as a standard: 1.8%
  hydrolysis of Leu-AMC: efficiently hydrolyzed; also recorded: common preference
  hydrolytic activity toward Leu-AMC in comparison to Leu-MCA used as a standard: 100.0%
  hydrolytic activity toward Lys-AMC in comparison to Leu-MCA used as a standard: 2.3%
  hydrolytic activity toward Met-AMC in comparison to Leu-MCA used as a standard: 89.5%
  hydrolytic activity toward Phe-AMC in comparison to Leu-MCA used as a standard: 8.9%
  hydrolytic activity toward Pro-AMC in comparison to Leu-MCA used as a standard: 7.4%
  hydrolytic activity toward Pyr-AMC in comparison to Leu-MCA used as a standard: 0.0%
  hydrolytic activity toward Ser-AMC in comparison to Leu-MCA used as a standard: 10.3%
  hydrolytic activity toward Thr-AMC in comparison to Leu-MCA used as a standard: 0.1%
  hydrolytic activity toward Val-AMC in comparison to Leu-MCA used as a standard: 0.8%
[4]
  hydrolytic activity toward Lys(Abz)Pro-PropNA in comparison to Leu-MCA used as a standard: 0.0%
[2]
  digestion of gliadin 33mer, mixed with ruDPPIV: same HPLC pattern

B2: pkLAP: commercially available microsomal LAP from porcine kidney (MEROPS>M1 family), Sigma (protein, UniProt P15145 2-963, looked up)
Aminopeptidase N: AKGFYISKALGILGILLGVAAVATIIALSVVYAQEKNKNAEHVPQAPTSPTITTTAAITLDQSKPWNRYRLPTTLLPDSYNVTLRPYLTPNADGLYIFKGKSIVRLLCQEPTDVIIIHSKKLNYTTQGHMVVLRGVGDSQVPEIDRTELVELTEYLVVHLKGSLQPGHMYEMESEFQGELADDLAGFYRSEYMEGNVKKVLATTQMQSTDARKSFPCFDEPAMKATFNITLIHPNNLTALSNMPPKGSSTPLAEDPNWSVTEFETTPVMSTYLLAYIVSEFQSVNETAQNGVLIRIWARPNAIAEGHGMYALNVTGPILNFFANHYNTSYPLPKSDQIALPDFNAGAMENWGLVTYRENALLFDPQSSSISNKERVVTVIAHELAHQWFGNLVTLAWWNDLWLNEGFASYVEYLGADHAEPTWNLKDLIVPGDVYRVMAVDALASSHPLTTPAEEVNTPAQISEMFDSISYSKGASVIRMLSNFLTEDLFKEGLASYLHAFAYQNTTYLDLWEHLQKAVDAQTSIRLPDTVRAIMDRWTLQMGFPVITVDTKTGNISQKHFLLDSESNVTRSSAFDYLWIVPISSIKNGVMQDHYWLRDVSQAQNDLFKTASDDWVLLNVNVTGYFQVNYDEDNWRMIQHQLQTNLSVIPVINRAQVIYDSFNLATAHMVPVTLALDNTLFLNGEKEYMPWQAALSSLSYFSLMFDRSEVYGPMKKYLRKQVEPLFQHFETLTKNWTERPENLMDQYSEINAISTACSNGLPQCENLAKTLFDQWMSDPENNPIHPNLRSTIYCNAIAQGGQDQWDFAWGQLQQAQLVNEADKLRSALACSNEVWLLNRYLGYTLNPDLIRKQDATSTINSIASNVIGQPLAWDFVQSNWKKLFQDYGGGSFSFSNLIQGVTRRFSSEFELQQLEQFKKNNMDVGFGSGTRALEQALEKTKANIKWVKENKEVVLNWFIEHS
[3]; compared to Leu-AMC
  hydrolytic activity toward Ala-AMC: extremely high efficiency
  hydrolytic activity toward Arg-AMC: extremely high efficiency
[3]
  hydrolytic activity toward Ala-AMC in comparison to Leu-MCA used as a standard: 584.7%
  hydrolytic activity toward Arg-AMC in comparison to Leu-MCA used as a standard: 174.8%
  hydrolytic activity toward Asn-AMC in comparison to Leu-MCA used as a standard: 33.9%
  hydrolytic activity toward Asp-AMC in comparison to Leu-MCA used as a standard: 0.9%
  hydrolytic activity toward Cys-AMC in comparison to Leu-MCA used as a standard: 35.5%
  hydrolytic activity toward Gln-AMC in comparison to Leu-MCA used as a standard: 50.7%
  hydrolytic activity toward Glu-AMC in comparison to Leu-MCA used as a standard: 4.7%
  hydrolytic activity toward Gly-AMC in comparison to Leu-MCA used as a standard: 74.8%
  hydrolytic activity toward Gly-Pro-AMC in comparison to Leu-MCA used as a standard: 16.7%
  hydrolytic activity toward His-AMC in comparison to Leu-MCA used as a standard: 17.6%
  hydrolytic activity toward Hyp-AMC in comparison to Leu-MCA used as a standard: 1.7%
  hydrolytic activity toward Ile-AMC in comparison to Leu-MCA used as a standard: 6.3%
  hydrolysis of Leu-AMC: efficiently hydrolyzed; also recorded: common preference
  hydrolytic activity toward Leu-AMC in comparison to Leu-MCA used as a standard: 100.0%
  hydrolytic activity toward Lys-AMC in comparison to Leu-MCA used as a standard: 70.1%
  hydrolytic activity toward Met-AMC in comparison to Leu-MCA used as a standard: 46.1%
  hydrolytic activity toward Phe-AMC in comparison to Leu-MCA used as a standard: 184.4%
  hydrolytic activity toward Pro-AMC in comparison to Leu-MCA used as a standard: 7.9%
  hydrolytic activity toward Pyr-AMC in comparison to Leu-MCA used as a standard: 0.0%
  hydrolytic activity toward Ser-AMC in comparison to Leu-MCA used as a standard: 24.6%
  hydrolytic activity toward Thr-AMC in comparison to Leu-MCA used as a standard: 4.4%
  hydrolytic activity toward Val-AMC in comparison to Leu-MCA used as a standard: 4.0%
[4]
  hydrolytic activity toward Lys(Abz)Pro-PropNA in comparison to Leu-MCA used as a standard: 0.0%
[2]
  digestion of gliadin 33mer, enzyme alone: partial deletion of N-terminal Leu and C-terminal Phe
  digestion of gliadin 33mer, mixed with ruDPPIV: does not modify the profile
